Measurements taken from patent publication US20020127645A1.

Target: dimeric mouse-human chimeric IgA1 specific for the hapten dansyl (human) (UniProt P01876)
Test: densitometry of secreted proteins after immunoprecipitation and SDS-PAGE

Sequence of UniProt P01876 (P01876 other isoform, or with tags, fused parts or gaps mutant, chain 1 of 2, other chains not shown): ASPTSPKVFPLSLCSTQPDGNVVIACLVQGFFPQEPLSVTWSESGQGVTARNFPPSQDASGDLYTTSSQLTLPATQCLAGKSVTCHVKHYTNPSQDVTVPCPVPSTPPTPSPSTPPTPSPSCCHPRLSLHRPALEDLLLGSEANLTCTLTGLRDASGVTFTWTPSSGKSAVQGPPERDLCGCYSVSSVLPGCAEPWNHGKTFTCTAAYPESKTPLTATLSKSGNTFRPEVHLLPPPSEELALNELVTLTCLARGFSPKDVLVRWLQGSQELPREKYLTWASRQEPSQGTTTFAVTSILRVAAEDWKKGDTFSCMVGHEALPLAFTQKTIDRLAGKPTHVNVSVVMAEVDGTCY

Q: For “human secretory component (SC), ectoplasmic domain of the human polymeric Ig receptor (pIgR) ending at Glu589 (from UniProt P01833 19-607)”, which α chains per molecule of SC (stoichiometry) (α chains per SC) is on record?
A: 4
